The values that follow come from publication PMC2789969 (Archives of biochemistry and biophysics, 2009).

First the molecules themselves.
B1: IIA^Glc, the glucose-specific phosphocarrier protein of the phosphoenolpyruvate:glycose phosphotransferase system (natural protein)
chain: GLFDKLKSLVSDDKKDTGTIEIIAPLSGEIVNIEDVPDVVFAEKIVGDGIAIKPTGNKMVAPVDGTIGKIFETNHAFSIESDSGVELFVHFGIDTVELKGEGFKRIAEEGQRVKVGDTVIEFDLPLLEEKAKSTLTPVVISNMDEIKELIKLSGSVTVGETPVIRIKK
B2: R369A EGK (enzyme, Escherichia coli, UniProt P0A6F3 1-502, looked up)
chain: MTEKKYIVALDQGTTSSRAVVMDHDANIISVSQREFEQIYPKPGWVEHDPMEIWATQSSTLVEVLAKADISSDQIAAIGITNQRETTIVWEKETGKPIYNAIVWQCRRTAEICEHLKRDGLEDYIRSNTGLVIDPYFSGTKVKWILDHVEGSRERARRGELLFGTVDTWLIWKMTQGRVHVTDYTNASRTMLFNIHTLDWDDKMLEVLDIPREMLPEVRRSSEVYGQTNIGGKGGTRIPISGIAGDQQAALFGQLCVKEGMAKNTYGTGCFMLMNTGEKAVKSENGLLTTIACGPTGEVNYALEGAVFMAGASIQWLRDEMKLINDAYDSEYFATKVQNTNGVYVVPAFTGLGAPYWDPYARGAIFGLTAGVNANHIIRATLESIAYQTRDVLEAMQADSGIRLHALRVDGGAVANNFLMQFQSDILGTRVERPEVREVTALGAAYLAGLAVGFWQNLDELQEKAVIEREFRPGIETTERNYRYAGWKKAVKRAMAWEEHDE
B3: A65T EGK (enzyme, Escherichia coli, UniProt P0A6F3 1-502, looked up)
chain: B2 chain with A66T, A370R

Data set [1] deals with T1, Escherichia coli glycerol kinase (Escherichia coli, UniProt P0A6F3 1-502). Kind of data set: linked-functions initial-velocity enzyme kinetics.
In data set [2] the target is B2. Kind of data set: linked-functions initial-velocity enzyme kinetics.
Data set [3] has as its target B3. The data set is described as follows: linked-functions initial-velocity enzyme kinetics.
Data set [4] addresses T1, Escherichia coli glycerol kinase. Kind of data set: linked-functions initial-velocity enzyme kinetics. The source holds these as a separate data set.
Data set [5] addresses B2. Kind of data set: linked-functions initial-velocity enzyme kinetics. This is another data set of the same source.
The target of data set [6] is B3. The data set is described as follows: linked-functions initial-velocity enzyme kinetics. This is another data set of the same source.
Data set [7] concerns the molecule itself. Kind of data set: AUC.

Positions count from the first letter of the chain named. Names and notes keep the numbering of the source. Where two headings read alike, the source gives them in different places.

As for B1, the Kd in data set [1] came out at 4.6 µM; in data set [2], 1.8 µM; in data set [3], 8 µM; in data set [4] it was 7 µM; in data set [5], 2 µM; in data set [6], 28 µM.

Turning to B2, the “stoichiometry N” value in data set [7] came to 4.

Take B3: in data set [7], the binding result was “binds”.

For orientation: Kd means the free concentration of one partner at which half of the binding sites on the other are occupied at equilibrium, for simple one-to-one binding. Lower therefore signals tighter binding. In general, stoichiometry N refers to a count of units in the complex or per binding partner.
